Ends that are not written are not given here.
Molecular target: T1, GST-DDX19A (recombinant full-length DEAD-box helicase 19A) (UniProt Q9NUU7 1-478)
T1 construct: DEAD-box helicase 19A (DDX19A), expressed from pGEX-DDX19A; Printed both as GST-DDX19A and as DDX19A-GST; no cleavage of GST is described, and the array is detected by anti-GST. pGEX vectors usually put GST at the N-terminus (surmise); also called DDX19A-GST; recombinant DDX19A
T1 sequence (looked up): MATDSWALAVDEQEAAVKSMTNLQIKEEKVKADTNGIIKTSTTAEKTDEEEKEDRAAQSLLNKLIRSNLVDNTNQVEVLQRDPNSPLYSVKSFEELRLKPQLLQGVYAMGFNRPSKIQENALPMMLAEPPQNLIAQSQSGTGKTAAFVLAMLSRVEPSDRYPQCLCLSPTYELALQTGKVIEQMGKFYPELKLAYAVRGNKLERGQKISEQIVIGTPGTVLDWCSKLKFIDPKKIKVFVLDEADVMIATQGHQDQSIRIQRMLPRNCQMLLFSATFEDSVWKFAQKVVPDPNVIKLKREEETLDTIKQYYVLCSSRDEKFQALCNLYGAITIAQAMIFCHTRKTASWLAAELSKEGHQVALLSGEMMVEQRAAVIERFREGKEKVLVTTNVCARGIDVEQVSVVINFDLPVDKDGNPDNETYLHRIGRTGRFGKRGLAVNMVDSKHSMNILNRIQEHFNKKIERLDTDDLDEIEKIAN
Assay: fluorescence polarisation; fluorescence anisotropy; 50 nM FITC-labelled H3.1 (16-34) peptide in 20 mM HEPES pH 7.5, 100 mM KCl, 0.1 mM DTT, 10% glycerol; DDX19A added stepwise; 23°C; fit to a simple binding equilibrium
Conditions: both partners purified

B1: FITC-labelled H3.1 peptide (residues 16-34), unmodified (peptide)
chain: PRKQLATKAARKSAPATGG
modifications: also: FITC label, position not given here
A Kd greater than 1 µM was found for B1 in this work.

From PMC8096265, “A functional LSD1 coregulator screen reveals a novel transcriptional regulatory cascade connecting R-loop homeostasis with epigenetic regulation” (Nucleic Acids Research, 2021)
